Reference: patent US20200270318A1
No end group written: not given here.

Biological target: human PAC1 receptor with 3 hemagglutinin (HA) tags, expressed in Chinese Hamster Ovary (CHO) cells (human), P41586
Assay: cell-based or functional assay

human PAC1 receptor with 3 hemagglutinin (HA) tags, expressed in Chinese Hamster Ovary (CHO) cells (human), P41586, sequence (P41586 21-468): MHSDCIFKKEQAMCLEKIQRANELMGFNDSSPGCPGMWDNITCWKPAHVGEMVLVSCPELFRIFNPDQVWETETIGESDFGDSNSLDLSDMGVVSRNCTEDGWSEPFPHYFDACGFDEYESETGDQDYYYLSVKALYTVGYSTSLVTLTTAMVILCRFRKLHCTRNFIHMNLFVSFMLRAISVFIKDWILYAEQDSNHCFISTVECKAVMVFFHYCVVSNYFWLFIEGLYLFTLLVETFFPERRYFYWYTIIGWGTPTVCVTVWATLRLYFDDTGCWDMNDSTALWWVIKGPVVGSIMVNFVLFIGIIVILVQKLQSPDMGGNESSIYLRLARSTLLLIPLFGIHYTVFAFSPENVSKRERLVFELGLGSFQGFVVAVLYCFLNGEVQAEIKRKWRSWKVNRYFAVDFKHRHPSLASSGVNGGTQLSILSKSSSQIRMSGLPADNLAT

| Binder | IC50 (nM), antagonist mode (variable concentration) versus 5 nM PACAP1-27, calcium flux (FLIPR), PAC1-CHO cells [nM] | IMax (%), antagonist mode (variable concentration) versus 5 nM PACAP1-27; ( )=% inhibition at highest concentration [%] | pA2 (nM), antagonist mode (fixed concentration), Gaddum/Schild EC50 shift of PACAP1-27 curves, calcium flux (FLIPR), PAC1-CHO cells [nM] | EMax (%), calcium flux (FLIPR), agonist mode, PAC1-CHO cells [%] |
| --- | --- | --- | --- | --- |
| FTDSYSRYRKQMAVKKYLAAVLGKRYKQRVKNY-NH2 [PACAP6-38] | > 333 | 78.8 | 201 |  |
| HSDGIFTDSYSRYRKQMAVKKYLAAVL-NH2 [PACAP1-27] |  |  |  | 100 |
